The text below walks through data of article PMC10992996.

The target of this experiment is Human canonical CRB1 (Crumbs homolog 1) (UniProt P82279). Description: co-IP (FLAG-IP) and Western blot quantification. Particulars: co-transfected in HEK293T cells; three biological replicates; parent: est. 1.0; read off a plot. (In general: A western blot detects proteins with antibodies after separation by electrophoresis.)
Chain of Human canonical CRB1 (Crumbs homolog 1) (P82279 26-1406): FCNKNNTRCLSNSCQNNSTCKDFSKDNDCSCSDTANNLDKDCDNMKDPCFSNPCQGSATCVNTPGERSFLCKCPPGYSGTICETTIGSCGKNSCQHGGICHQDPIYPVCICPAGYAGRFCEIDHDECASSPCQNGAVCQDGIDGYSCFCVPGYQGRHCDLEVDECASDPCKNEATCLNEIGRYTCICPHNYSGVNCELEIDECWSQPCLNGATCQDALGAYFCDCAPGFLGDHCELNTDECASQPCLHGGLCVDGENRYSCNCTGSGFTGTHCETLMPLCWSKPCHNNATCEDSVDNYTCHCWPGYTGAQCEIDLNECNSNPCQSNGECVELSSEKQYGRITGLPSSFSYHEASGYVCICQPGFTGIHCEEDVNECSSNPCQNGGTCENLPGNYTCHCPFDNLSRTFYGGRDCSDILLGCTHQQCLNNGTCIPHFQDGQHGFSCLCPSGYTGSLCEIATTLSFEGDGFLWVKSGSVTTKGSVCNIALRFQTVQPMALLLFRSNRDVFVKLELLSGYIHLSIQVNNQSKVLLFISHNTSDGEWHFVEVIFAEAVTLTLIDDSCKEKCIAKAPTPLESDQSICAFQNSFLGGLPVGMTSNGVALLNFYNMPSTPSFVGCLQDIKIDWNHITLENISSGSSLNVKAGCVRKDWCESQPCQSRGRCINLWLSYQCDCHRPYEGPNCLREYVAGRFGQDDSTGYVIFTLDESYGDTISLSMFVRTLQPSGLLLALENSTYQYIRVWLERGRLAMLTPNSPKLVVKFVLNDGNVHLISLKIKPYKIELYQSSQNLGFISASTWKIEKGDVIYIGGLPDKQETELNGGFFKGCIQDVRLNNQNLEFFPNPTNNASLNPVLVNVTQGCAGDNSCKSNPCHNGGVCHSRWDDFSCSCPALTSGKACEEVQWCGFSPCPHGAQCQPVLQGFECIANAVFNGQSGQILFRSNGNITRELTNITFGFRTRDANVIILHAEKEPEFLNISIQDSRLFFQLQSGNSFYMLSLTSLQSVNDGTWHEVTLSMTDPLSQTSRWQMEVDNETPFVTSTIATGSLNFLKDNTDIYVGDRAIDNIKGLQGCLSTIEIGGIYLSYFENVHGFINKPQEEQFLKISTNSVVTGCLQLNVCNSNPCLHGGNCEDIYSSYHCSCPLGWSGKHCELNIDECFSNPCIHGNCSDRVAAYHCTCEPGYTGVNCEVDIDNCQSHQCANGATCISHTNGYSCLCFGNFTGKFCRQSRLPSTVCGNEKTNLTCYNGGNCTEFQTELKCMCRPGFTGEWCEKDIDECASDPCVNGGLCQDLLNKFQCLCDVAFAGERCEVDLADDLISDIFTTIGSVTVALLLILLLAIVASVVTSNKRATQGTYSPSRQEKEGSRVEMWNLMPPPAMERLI

As for “Human canonical CRB2 (Crumbs homolog 2) (from UniProt Q5IJ48-1) p.N800K”, the ratio to parent is 1.1. With “Human canonical CRB2 (Crumbs homolog 2) (from UniProt Q5IJ48-1) p.C620S” the figure was 1.1; with “Human canonical CRB2 (Crumbs homolog 2) (from UniProt Q5IJ48-1) p.G839W”, 0.94. With “Human canonical CRB2 (Crumbs homolog 2) (from UniProt Q5IJ48-1) p.W498C”, the ratio to parent is 1.1. Next, “Human canonical CRB2 (Crumbs homolog 2) (from UniProt Q5IJ48-1) p.C629S”: 1.1; “Human canonical CRB2 (Crumbs homolog 2) (from UniProt Q5IJ48-1) p.R633W”: 0.9; “Human canonical CRB2 (Crumbs homolog 2) (from UniProt Q5IJ48-1) p.R1115C”: 1. In the case of “Human canonical CRB2 (Crumbs homolog 2) (from UniProt Q5IJ48-1) p.C1129S”, the ratio to parent turned out to be 1.2. Consider “Human canonical CRB2 (Crumbs homolog 2) (from UniProt Q5IJ48-1) p.L777H”, for which the ratio to parent is 1.1. Consider “Human canonical CRB2 (Crumbs homolog 2) (from UniProt Q5IJ48-1) p.R628C”, for which the ratio to parent stood at 0.97.
